{"source": "patent US20080267980A1", "about": "(published 2008)", "binders": {"B1": {"name": "CR2-DAF (other)", "chain": "ISCGSPPPILNGRISYYSTPIAVGTVIRYSCSGTFRLIGEKSLLCITKDKVDGTWDKPAPKCEYFNKYSSCPEPIVPGGYKIRGSTPYRHGDSVTFACKTNFSMNGNKSVWCQANNMWGPTRLPTCVSVFPLECPALPMIHNGHHTSENVGSIAPGLSVTYSCESGYLLVGEKIINCLSSGKWSAVPPTCEEARCKSLGRFPNGKVKEPPILRVGVTANFFCDEGYRLQGPPSSRCVIAGQGVAWTKMPVCGGGSGGGGSDCGLPPDVPNAQPALEGRTSFPEDTVITYKCEESFVKIPGEKDSVICLKGSQWSDIEEFCNRSCEVPTRLNSASLKQPYITQNYFPVGTVVEYECRPGYRREPSLSPKLTCLQNLKWSTAVEFCKKKSCPNPGEIRNGQIDVPGGILFGATISFSCNTGYKLFGSTSSFCLISGSSVQWSDPLPECREIYCPAPPQIDNGIIQGERDHYGYRQSVTYACNKGFTMIGEHSIYCTV"}, "B2": {"name": "CD59-CR2 (other)", "chain": "LQCYNCPNPTADCKTAVNCSSDFDACLITKAGLQVYNKCWKFEHCNFNDVTTRLRENELTYYCCKKDLCNFNEQLENSSGGGGSGGGGSGGGGSISCGSPPPILNGRISYYSTPIAVGTVIRYSCSGTFRLIGEKSLLCITKDKVDGTWDKPAPKCEYFNKYSSCPEPIVPGGYKIRGSTPYRHGDSVTFACKTNFSMNGNKSVWCQANNMWGPTRLPTCVSVFPLECPALPMIHNGHHTSENVGSIAPGLSVTYSCESGYLLVGEKIINCLSSGKWSAVPPTCEEARCKSLGRFPNGKVKEPPILRVGVTANFFCDEGYRLQGPPSSRC"}, "B3": {"name": "DAF-CR2 (other)", "chain": "DCGLPPDVPNAQPALEGRTSFPEDTVITYKCEESFVKIPGEKDSVICLKGSQWSDIEEFCNRSCEVPTRLNSASLKQPYITQNYFPVGTVVEYECRPGYRREPSLSPKLTCLQNLKWSTAVEFCKKKSCPNPGEIRNGQIDVPGGILFGATISFSCNTGYKLFGSTSSFCLISGSSVQWSDPLPECREIYCPAPPQIDNGIIQGERDHYGYRQSVTYACNKGFTMIGEHSIYCTVNNDEGEWSGPPPECRSSGGGGSGGGGSGGGGSISCGSPPPILNGRISYYSTPIAVGTVIRYSCSGTFRLIGEKSLLCITKDKVDGTWDKPAPKCEYFNKYSSCPEPIVPGGYKIRGSTPYRHGDSVTFACKTNFSMNGNKSVWCQANNMWGPTRLPTCVSVFPLECPALPMIHNGHHTSENVGSIAPGLSVTYSCESGYLLVGEKIINCLSSGKWSAVPPTCEEARCKSLGRFPNGKVKEPPILRVGVTANFFCDEGYRLQGPPSSRCVIAGQGVAWTKMPVC"}, "B4": {"name": "CR2-CD59 (other)", "chain": "ISCGSPPPILNGRISYYSTPIAVGTVIRYSCSGTFRLIGEKSLLCITKDKVDGTWDKPAPKCEYFNKYSSCPEPIVPGGYKIRGSTPYRHGDSVTFACKTNFSMNGNKSVWCQANNMWGPTRLPTCVSVFPLECPALPMIHNGHHTSENVGSIAPGLSVTYSCESGYLLVGEKIINCLSSGKWSAVPPTCEEARCKSLGRFPNGKVKEPPILRVGVTANFFCDEGYRLQGPPSSRCVIAGQGVAWTKMPVCSGGGGSLQCYNCPNPTADCKTAVNCSSDFDACLITKAGLQVYNKCWKFEHCNFNDVTTRLRENELTYYCCKKDLCNFNEQLEN"}}, "assay_in_all_cases": "SPR", "key": {"Human C3dg-biotin [1]": {"target": "T1, Human C3dg-biotin (human, UniProt P01024 955-1303, biotin (site not stated) in the SPR experiments)", "T1 sequence (P01024 955-1303)": "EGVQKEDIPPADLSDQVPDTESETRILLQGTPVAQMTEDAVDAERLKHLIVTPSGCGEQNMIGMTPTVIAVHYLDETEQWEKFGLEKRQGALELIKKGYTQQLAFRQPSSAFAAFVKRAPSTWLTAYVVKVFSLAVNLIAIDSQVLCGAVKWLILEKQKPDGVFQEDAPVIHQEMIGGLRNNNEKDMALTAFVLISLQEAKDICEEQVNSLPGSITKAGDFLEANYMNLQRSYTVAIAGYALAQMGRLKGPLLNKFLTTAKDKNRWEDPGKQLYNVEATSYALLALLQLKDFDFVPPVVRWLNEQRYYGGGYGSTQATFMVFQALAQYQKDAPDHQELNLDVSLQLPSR"}, "Human C3dg-biotin [2]": {"target": "T1, Human C3dg-biotin", "remark": "listed apart in the source"}, "Human C3dg-biotin [3]": {"target": "T1, Human C3dg-biotin", "remark": "listed apart in the source"}, "Human C3dg-biotin [4]": {"target": "T1, Human C3dg-biotin", "remark": "listed apart in the source"}}, "note": "Read-outs that look alike come from different tables or passages of the source.", "data": [{"binder": "B1", "values": [{"measurement": "Kd", "setting": "Human C3dg-biotin [1]", "value": 129, "unit": "nM"}]}, {"binder": "B2", "values": [{"measurement": "Kd", "setting": "Human C3dg-biotin [2]", "value": 451, "unit": "nM"}]}, {"binder": "B3", "values": [{"measurement": "Kd", "setting": "Human C3dg-biotin [3]", "value": 2600, "unit": "nM"}]}, {"binder": "B4", "values": [{"measurement": "Kd", "setting": "Human C3dg-biotin [4]", "value": 15.5, "unit": "nM"}]}]}
